Test results taken from patent publication US20120172293A1 (Takeda / Millennium, published 2012).
Values belong to the molecule of their own block, whether it stands above or below them. Non-standard residues stand in square brackets, D forms with d. *: point of attachment. tBuAla = CC(C)(C)C[C@H](N)C(=O)O; 4Pal = N[C@@H](Cc1ccncc1)C(=O)O; dHyp = O=C(O)[C@H]1C[C@H](O)CN1; Cha = N[C@@H](CC1CCCCC1)C(=O)O; Isobutyryl = CC(C)C(=O)*; Iva = CC[C@](C)(N)C(=O)O; Aib = CC(C)(N)C(=O)O

Legend:
[1] = target: human Y2 receptor (human) (UniProt P49146); test: cell-based or functional assay
Chain of human Y2 receptor (human) (P49146 whole entry): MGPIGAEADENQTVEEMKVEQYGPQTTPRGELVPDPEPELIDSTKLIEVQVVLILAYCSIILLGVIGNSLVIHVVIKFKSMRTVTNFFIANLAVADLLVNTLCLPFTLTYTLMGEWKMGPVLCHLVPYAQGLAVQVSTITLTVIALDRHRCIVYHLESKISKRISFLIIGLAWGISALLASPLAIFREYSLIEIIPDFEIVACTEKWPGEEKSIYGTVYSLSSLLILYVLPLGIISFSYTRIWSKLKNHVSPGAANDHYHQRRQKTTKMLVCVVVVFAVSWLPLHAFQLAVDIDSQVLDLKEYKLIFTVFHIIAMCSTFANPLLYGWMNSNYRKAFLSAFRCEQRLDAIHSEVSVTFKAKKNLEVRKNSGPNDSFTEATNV

[2] = target: human Y2 receptor (human) (UniProt P49146); test: RBA: displacement of [125I]-PYY from hY2R/CHO membranes

GBA EC50 Ratio ([35S]GTPγS binding) (EC50 compound/EC50 PYY(3-36)) [1]: 1.2 | IC50 Ratio (IC50 compound/IC50 PYY(3-36)) [2]: 0.96
Molecule: 3-Carboxypropionyl-[D-Pro24, Pya(4)26, Cha27,36, Aib28,31, Lys30]-PYY(23-36) (peptide)

GBA EC50 Ratio ([35S]GTPγS binding) (EC50 compound/EC50 PYY(3-36)) [1]: 0.71 | IC50 Ratio (IC50 compound/IC50 PYY(3-36)) [2]: 1.1
Molecule: (Tetrahydro-2H-pyran-4-yl)carbonyl-[D-Pro24, Pya(4)26, Cha27,36, Aib28,31, Lys30]-PYY(23-36) (peptide)

GBA EC50 Ratio ([35S]GTPγS binding) (EC50 compound/EC50 PYY(3-36)) [1]: 1.1 | IC50 Ratio (IC50 compound/IC50 PYY(3-36)) [2]: 0.76
Molecule: 4-Imidazolecarbonyl-[D-Pro24, Pya(4)26, Cha27,36, Aib28,31, Lys30]-PYY(23-36) (peptide)

GBA EC50 Ratio ([35S]GTPγS binding) (EC50 compound/EC50 PYY(3-36)) [1]: 1.1 | IC50 Ratio (IC50 compound/IC50 PYY(3-36)) [2]: 0.97
Molecule: Ac-[D-Pro24, Pya(4)26, Cha27,36, Aib28,31, Lys(Ac)30]-PYY(23-36) (peptide)

GBA EC50 Ratio ([35S]GTPγS binding) (EC50 compound/EC50 PYY(3-36)) [1]: 2 | IC50 Ratio (IC50 compound/IC50 PYY(3-36)) [2]: 1.9
B1: Isobutanoyl-[Glu23, D-Pro24, Pya(4)26, Cha27,36, Aib28,31, Lys30]-PYY(23-36) (peptide)
peptide: Isobutyryl-E[dP]R[4Pal][Cha][Aib]NK[Aib]TRQR[Cha]-NH2
SMILES: CC(C)C(=O)N[C@@H](CCC(=O)O)C(=O)N1CCC[C@@H]1C(=O)N[C@@H](CCCNC(=N)N)C(=O)N[C@@H](Cc1ccncc1)C(=O)N[C@@H](CC1CCCCC1)C(=O)NC(C)(C)C(=O)N[C@@H](CC(N)=O)C(=O)N[C@@H](CCCCN)C(=O)NC(C)(C)C(=O)N[C@H](C(=O)N[C@@H](CCCNC(=N)N)C(=O)N[C@@H](CCC(N)=O)C(=O)N[C@@H](CCCNC(=N)N)C(=O)N[C@@H](CC1CCCCC1)C(N)=O)[C@@H](C)O

GBA EC50 Ratio ([35S]GTPγS binding) (EC50 compound/EC50 PYY(3-36)) [1]: 1.9 | IC50 Ratio (IC50 compound/IC50 PYY(3-36)) [2]: 2.7
B2: Ac-[Glu23, D-Pro24, Pya(4)26, Cha27,36, Aib28,31, Lys30]-PYY(23-36) (peptide)
peptide: Ac-E[dP]R[4Pal][Cha][Aib]NK[Aib]TRQR[Cha]-NH2
SMILES: CC(=O)N[C@@H](CCC(=O)O)C(=O)N1CCC[C@@H]1C(=O)N[C@@H](CCCNC(=N)N)C(=O)N[C@@H](Cc1ccncc1)C(=O)N[C@@H](CC1CCCCC1)C(=O)NC(C)(C)C(=O)N[C@@H](CC(N)=O)C(=O)N[C@@H](CCCCN)C(=O)NC(C)(C)C(=O)N[C@H](C(=O)N[C@@H](CCCNC(=N)N)C(=O)N[C@@H](CCC(N)=O)C(=O)N[C@@H](CCCNC(=N)N)C(=O)N[C@@H](CC1CCCCC1)C(N)=O)[C@@H](C)O

GBA EC50 Ratio ([35S]GTPγS binding) (EC50 compound/EC50 PYY(3-36)) [1]: 20 | IC50 Ratio (IC50 compound/IC50 PYY(3-36)) [2]: 43
B3: Ac-[D-Pro24, Cha27,28,36, Iva30, Aib31]-PYY(23-36) (peptide)
peptide: Ac-S[dP]RH[Cha][Cha]N[Iva][Aib]TRQR[Cha]-NH2
SMILES: CC[C@](C)(NC(=O)[C@H](CC(N)=O)NC(=O)[C@H](CC1CCCCC1)NC(=O)[C@H](CC1CCCCC1)NC(=O)[C@H](Cc1c[nH]cn1)NC(=O)[C@H](CCCNC(=N)N)NC(=O)[C@H]1CCCN1C(=O)[C@H](CO)NC(C)=O)C(=O)NC(C)(C)C(=O)N[C@H](C(=O)N[C@@H](CCCNC(=N)N)C(=O)N[C@@H](CCC(N)=O)C(=O)N[C@@H](CCCNC(=N)N)C(=O)N[C@@H](CC1CCCCC1)C(N)=O)[C@@H](C)O

GBA EC50 Ratio ([35S]GTPγS binding) (EC50 compound/EC50 PYY(3-36)) [1]: 0.76 | IC50 Ratio (IC50 compound/IC50 PYY(3-36)) [2]: 0.38
B4: Ac-[D-Hyp24, Cha27,36, Leu(Me)28, Lys30, Aib31]-PYY(23-36) (peptide)
peptide: Ac-S[dHyp]RH[Cha][tBuAla]NK[Aib]TRQR[Cha]-NH2
SMILES: CC(=O)N[C@@H](CO)C(=O)N1C[C@@H](O)C[C@@H]1C(=O)N[C@@H](CCCNC(=N)N)C(=O)N[C@@H](Cc1c[nH]cn1)C(=O)N[C@@H](CC1CCCCC1)C(=O)N[C@@H](CC(C)(C)C)C(=O)N[C@@H](CC(N)=O)C(=O)N[C@@H](CCCCN)C(=O)NC(C)(C)C(=O)N[C@H](C(=O)N[C@@H](CCCNC(=N)N)C(=O)N[C@@H](CCC(N)=O)C(=O)N[C@@H](CCCNC(=N)N)C(=O)N[C@@H](CC1CCCCC1)C(N)=O)[C@@H](C)O

GBA EC50 Ratio ([35S]GTPγS binding) (EC50 compound/EC50 PYY(3-36)) [1]: 1.3 | IC50 Ratio (IC50 compound/IC50 PYY(3-36)) [2]: 0.8
B5: Ac-[Glu23, D-Hyp24, Cha27,28,36, Lys30, Aib31]-PYY(23-36) (peptide)
peptide: Ac-E[dHyp]RH[Cha][Cha]NK[Aib]TRQR[Cha]-NH2
SMILES: CC(=O)N[C@@H](CCC(=O)O)C(=O)N1C[C@@H](O)C[C@@H]1C(=O)N[C@@H](CCCNC(=N)N)C(=O)N[C@@H](Cc1c[nH]cn1)C(=O)N[C@@H](CC1CCCCC1)C(=O)N[C@@H](CC1CCCCC1)C(=O)N[C@@H](CC(N)=O)C(=O)N[C@@H](CCCCN)C(=O)NC(C)(C)C(=O)N[C@H](C(=O)N[C@@H](CCCNC(=N)N)C(=O)N[C@@H](CCC(N)=O)C(=O)N[C@@H](CCCNC(=N)N)C(=O)N[C@@H](CC1CCCCC1)C(N)=O)[C@@H](C)O

GBA EC50 Ratio ([35S]GTPγS binding) (EC50 compound/EC50 PYY(3-36)) [1]: 0.69 | IC50 Ratio (IC50 compound/IC50 PYY(3-36)) [2]: 1.1
B6: Ac-[Thr23, D-Pro24, Pya(4)26, Cha27,36, Aib28,31, Lys30]-PYY(23-36) (peptide)
peptide: Ac-T[dP]R[4Pal][Cha][Aib]NK[Aib]TRQR[Cha]-NH2
SMILES: CC(=O)N[C@H](C(=O)N1CCC[C@@H]1C(=O)N[C@@H](CCCNC(=N)N)C(=O)N[C@@H](Cc1ccncc1)C(=O)N[C@@H](CC1CCCCC1)C(=O)NC(C)(C)C(=O)N[C@@H](CC(N)=O)C(=O)N[C@@H](CCCCN)C(=O)NC(C)(C)C(=O)N[C@H](C(=O)N[C@@H](CCCNC(=N)N)C(=O)N[C@@H](CCC(N)=O)C(=O)N[C@@H](CCCNC(=N)N)C(=O)N[C@@H](CC1CCCCC1)C(N)=O)[C@@H](C)O)[C@@H](C)O

GBA EC50 Ratio ([35S]GTPγS binding) (EC50 compound/EC50 PYY(3-36)) [1]: 0.9 | IC50 Ratio (IC50 compound/IC50 PYY(3-36)) [2]: 1.3
B7: Ac-[Gln23, D-Pro24, Pya(4)26, Cha27,36, Aib28,31, Lys30]-PYY(23-36) (peptide)
peptide: Ac-Q[dP]R[4Pal][Cha][Aib]NK[Aib]TRQR[Cha]-NH2
SMILES: CC(=O)N[C@@H](CCC(N)=O)C(=O)N1CCC[C@@H]1C(=O)N[C@@H](CCCNC(=N)N)C(=O)N[C@@H](Cc1ccncc1)C(=O)N[C@@H](CC1CCCCC1)C(=O)NC(C)(C)C(=O)N[C@@H](CC(N)=O)C(=O)N[C@@H](CCCCN)C(=O)NC(C)(C)C(=O)N[C@H](C(=O)N[C@@H](CCCNC(=N)N)C(=O)N[C@@H](CCC(N)=O)C(=O)N[C@@H](CCCNC(=N)N)C(=O)N[C@@H](CC1CCCCC1)C(N)=O)[C@@H](C)O

GBA EC50 Ratio ([35S]GTPγS binding) (EC50 compound/EC50 PYY(3-36)) [1]: 2.4 | IC50 Ratio (IC50 compound/IC50 PYY(3-36)) [2]: 2.5
B8: Ac-[D-Pro24, Pya(4)26, Cha27,36, Aib28,31, Trp30]-PYY(23-36) (peptide)
peptide: Ac-S[dP]R[4Pal][Cha][Aib]NW[Aib]TRQR[Cha]-NH2
SMILES: CC(=O)N[C@@H](CO)C(=O)N1CCC[C@@H]1C(=O)N[C@@H](CCCNC(=N)N)C(=O)N[C@@H](Cc1ccncc1)C(=O)N[C@@H](CC1CCCCC1)C(=O)NC(C)(C)C(=O)N[C@@H](CC(N)=O)C(=O)N[C@@H](Cc1c[nH]c2ccccc12)C(=O)NC(C)(C)C(=O)N[C@H](C(=O)N[C@@H](CCCNC(=N)N)C(=O)N[C@@H](CCC(N)=O)C(=O)N[C@@H](CCCNC(=N)N)C(=O)N[C@@H](CC1CCCCC1)C(N)=O)[C@@H](C)O

GBA EC50 Ratio ([35S]GTPγS binding) (EC50 compound/EC50 PYY(3-36)) [1]: 2.2 | IC50 Ratio (IC50 compound/IC50 PYY(3-36)) [2]: 3.4
B9: Ac-[Glu23, D-Hyp24, Pya(4)26, Cha27,36, Aib28,31, Lys30]-PYY(23-36) (peptide)
peptide: Ac-E[dHyp]R[4Pal][Cha][Aib]NK[Aib]TRQR[Cha]-NH2
SMILES: CC(=O)N[C@@H](CCC(=O)O)C(=O)N1C[C@@H](O)C[C@@H]1C(=O)N[C@@H](CCCNC(=N)N)C(=O)N[C@@H](Cc1ccncc1)C(=O)N[C@@H](CC1CCCCC1)C(=O)NC(C)(C)C(=O)N[C@@H](CC(N)=O)C(=O)N[C@@H](CCCCN)C(=O)NC(C)(C)C(=O)N[C@H](C(=O)N[C@@H](CCCNC(=N)N)C(=O)N[C@@H](CCC(N)=O)C(=O)N[C@@H](CCCNC(=N)N)C(=O)N[C@@H](CC1CCCCC1)C(N)=O)[C@@H](C)O
